Source: paper PMC2139800 (The Journal of Cell Biology, 1997)

Biological target: F-actin (unlabeled) (rabbit, UniProt P68135 1-377)
Assay: co-sedimentation

- stoichiometry N: ~500 actin molecules per His6–l-afadin-C molecule
B1: His6–l-afadin-C (aa 1631–1829) (domain or fragment)
chain: DRVRQEEDGRHQEEERVKRDAEEKRRQEEGYYSRLEAERRRQHEEAARRLLEPEEPGLSRPPLPQDYEPPSQSSAPSAPPPPPQRNASYLKTQVLSPDSLFTAKFVAYDDDDEEENYVPAGPNSYSGSAGTTAGTYDAPRDTREKLSRSQDADLPGSSGAPENLTFRERQRLFSQGQDVSDKVKASRKLTELENELNTK
